Assay results: IntAct's records for PubMed 17548836

B1: Bone morphogenetic protein 1 (Homo sapiens), P13497 (parent)
chain: MPGVARLPLLLGLLLLPRPGRPLDLADYTYDLAEEDDSEPLNYKDPCKAAAFLGDIALDEEDLRAFQVQQAVDLRRHTARKSSIKAAVPGNTSTPSCQSTNGQPQRGACGRWRGRSRSRRAATSRPERVWPDGVIPFVIGGNFTGSQRAVFRQAMRHWEKHTCVTFLERTDEDSYIVFTYRPCGCCSYVGRRGGGPQAISIGKNCDKFGIVVHELGHVVGFWHEHTRPDRDRHVSIVRENIQPGQEYNFLKMEPQEVESLGETYDFDSIMHYARNTFSRGIFLDTIVPKYEVNGVKPPIGQRTRLSKGDIAQARKLYKCPACGETLQDSTGNFSSPEYPNGYSAHMHCVWRISVTPGEKIILNFTSLDLYRSRLCWYDYVEVRDGFWRKAPLRGRFCGSKLPEPIVSTDSRLWVEFRSSSNWVGKGFFAVYEAICGGDVKKDYGHIQSPNYPDDYRPSKVCIWRIQVSEGFHVGLTFQSFEIERHDSCAYDYLEVRDGHSESSTLIGRYCGYEKPDDIKSTSSRLWLKFVSDGSINKAGFAVNFFKEVDECSRPNRGGCEQRCLNTLGSYKCSCDPGYELAPDKRRCEAACGGFLTKLNGSITSPGWPKEYPPNKNCIWQLVAPTQYRISLQFDFFETEGNDVCKYDFVEVRSGLTADSKLHGKFCGSEKPEVITSQYNNMRVEFKSDNTVSKKGFKAHFFSDKDECSKDNGGCQQDCVNTFGSYECQCRSGFVLHDNKHDCKEAGCDHKVTSTSGTITSPNWPDKYPSKKECTWAISSTPGHRVKLTFMEMDIESQPECAYDHLEVFDGRDAKAPVLGRFCGSKKPEPVLATGSRMFLRFYSDNSVQRKGFQASHATECGGQVRADVKTKDLYSHAQFGDNNYPGGVDCEWVIVAEEGYGVELVFQTFEVEEETDCGYDYMELFDGYDSTAPRLGRYCGSGPPEEVYSAGDSVLVKFHSDDTITKKGFHLRYTSTKFQDTLHSRK
partner: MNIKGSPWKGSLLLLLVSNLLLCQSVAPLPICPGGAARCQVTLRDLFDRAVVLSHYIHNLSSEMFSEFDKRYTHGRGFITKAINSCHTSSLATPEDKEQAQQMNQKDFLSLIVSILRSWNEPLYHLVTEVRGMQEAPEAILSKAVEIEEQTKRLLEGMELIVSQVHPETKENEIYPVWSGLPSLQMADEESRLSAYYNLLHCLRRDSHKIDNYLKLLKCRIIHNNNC
B2: Bone morphogenetic protein 1 (Homo sapiens), P13497 (parent)
chain: B1 chain

Variants of: B1
Conditions: with prl_human PRL

Variant	effect of a mutation on the interaction
E214A	disrupting interaction strength

Variants of: B2
Conditions: with soma_human GH1, P01241
soma_human GH1, P01241, sequence (P01241 whole entry): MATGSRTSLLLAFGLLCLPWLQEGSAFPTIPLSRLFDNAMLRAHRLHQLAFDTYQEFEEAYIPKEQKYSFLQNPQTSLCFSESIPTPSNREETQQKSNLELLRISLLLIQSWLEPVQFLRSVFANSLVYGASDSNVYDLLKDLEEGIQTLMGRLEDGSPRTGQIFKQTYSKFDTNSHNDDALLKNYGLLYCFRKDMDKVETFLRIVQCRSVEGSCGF

Variant	effect of a mutation on the interaction
E214A	disrupting interaction strength
